Measured values reported in patent US20240191188A1.

Molecular target: CD28 on the surface of T cells and PBMCs (human) (UniProt P10747)
Assay: flow cytometry of live CD3+ cells of the CD28 positive fraction after D-biotin and washing; remaining anti-CD28 Fab monomers were detected with an antibody against the Ig kappa light chain. The same antibody on cells before selection (negative control, no Fab) gives 2.73

Substance: αCD28 Fab fragment derived from the monoclonal anti-human CD28 antibody CD28.3, heavy chain carboxy-terminally fused to the Twin-Strep-tag (monomeric)
- % of cells within gate: 5.91%
